In PMC3556581:

Target: parental cyclophilin A (CypA) (rhesus macaque; identical in sequence to human CypA) (UniProt P62940)
Assay: ITC

| Substance | Kd [µM] | dH [kcal/mol] |
| --- | --- | --- |
| HIV-1 N-terminal capsid (CA^N) domain (domain or fragment) | 5 | -6.05 |
| HIV-2 CA^N domain with CA Ala88 introduced (from UniProt P04590 136-279) (domain or fragment) | 8 |  |
